Assay results: patent US9383360B2, “Compositions and methods relating to lyme disease” (The United States of America, as represented by the …, priority 2012, dated 2016)

Tests used:
Aggrecan = assay: BbHtrA proteolysis assay, aggrecan substrate; type: biochemical, bovine, human; conditions: SDS-PAGE, silver stain, FIG. 4A
Procedure: For proteolysis assays described in Examples herein, purified protein substrates (200-600 nM) and proteases (100-150 nM) were diluted in assay buffer (50 mM HEPES, pH 7.4, 5 mM CaCl2) and incubated overnight at 37° C. Samples were boiled for 4 minutes to inactivate the proteases. Proteoglycans were deglycosylated by overnight incubation at 37° C. with 0.01 U chondroitinase ABC (Seikagaku). Reactions were stopped by the addition of SDS/PAGE sample buffer, boiled for 4 minutes, and electrophoresed on pre-cast Tris-glycine gels (BioRad). Reaction products were visualized by silver staining.
BbHtrA cleaved recombinant human aggrecan (G1-IGD-G2 domains) within the IGD (FIG. 4A). Cleavage of recombinant aggrecan generated three high molecular weight proteolytic fragments which migrated at ˜110 kd, ˜60 kd and ˜50 kd.
BbHtrA also degraded native, fully glycosylated aggrecan (FIG. 4B, lane 5). Again, this degradation required BbHtrA catalytic activity (FIG. 4B, lane 6). The BbHtrA-generated aggrecan fragments appear to be a doublet, unlike those generated by HtrA1.
Purified proteins were incubated with BbHtrA or BbHtrA^S226A as described herein. HtrA (also known as DegP) proteases belong to the family of serine proteases which contain a highly reactive serine residue in their active site. This serine (Ser210 in DegP) is part of the canonical His-Ser-Asp catalytic triad and mutation of the catalytic serine abolishes proteolytic activity (Skorko-Glonek et al., 1995). In BbHtrA, residues His119, Ser226 and Asp149 form the catalytic triad and mutation of serine 226 to alanine abolished proteolytic activity as expected (FIG. 5).
Reaction products were separated by SDS-PAGE and silver stained. Native collagen II and recombinant tenascin C were not degraded by BbHtrA indicating selectivity for proteoglycans, E-cadherin and fibronectin. FIG. 5 is an image of SDS-PAGE analysis showing that BbHtrA degrades aggrecan, neurocan, versican, brevican, biglycan, decorin, E-cadherin, and casein.

[1] = tested on: chondrocyte aggregate cultures; assay: Chondrocyte cytokine induction assay (Proteome Profiler Cytokine Arrays); type: cell-based, human
Source text: Chondrocyte aggregate cultures are used which form an extensive extracellular matrix with components characteristic of articular cartilage including aggrecan and type II collagen as described in Welter, J. et al, BioTechniques, 2007, 42(6):732-737; and Solchaga, L. A. et al., Chondrogenic Differentiation of Bone Marrow-Derived Mesenchymal Stem Cells: Tips and Tricks, 2011, 698:253-278.
To form the chondrocyte aggregate cultures, lx10^6 human mesenchymal stem cells (passage one, Lonza, catalog #PT-2501) were plated in a T150 flask (Corning) and cultured in growth media: mesenchymal stem cell basal media (MSCBM, Lonza, #PT-3238), mesenchymal growth supplements (SingleQuots, Lonza, #PT-4105), and 5 ng/ml recombinant human […] (Shenandoah Biotechnology). When confluent, cells were trypsin-released (0.5% trypsin EDTA, Gibco), expanded to two T150 flasks and fed with growth media every three days. When confluent, cells were harvested, resuspended in fresh growth media containing 5% DMSO and aliquots of 1×10^6 cells were cryopreserved in liquid nitrogen.
Human mesenchymal stem cells were used to promote chondrogenesis and chondrocyte aggregate formation for use in these studies. Two vials of passage three cryopreserved cells were thawed, plated in growth media in two T150 flasks and then expanded to six T150 flasks as above. Cells were harvested (0.5% trypsin EDTA, Gibco), pooled, enumerated and induced to chondrogenic differentiation as follows. Cells were resuspended in defined chondrocyte differentiation media: high glucose DMEM (Gibco), 50 μg/ml ascorbic acid-2-phosphate (Sigma), 39.3 ng/ml dexamethasone (Sigma), […] L-proline (Sigma), ITS+Premix (BD Biosciences), 10 ng/ml transforming growth factor β-3 (Shenandoah Biotechnology) and 30 μg/ml gentamicin sulfate+15 ng/ml amphotericin-B (GA-1000, Lonza, #PT-4504E). High density aggregates were obtained by plating, on average, 3×10^5 cells per well in a conical bottom 96 well plate (Thermo Scientific), pelleting by centrifugation (5 minutes at 600 g), and incubation at 37° C. and 5% CO2. Pellets formed coherent spherical aggregates by day two of culture. After seven days, wide bore tips were used to transfer aggregates to V-bottom 96 well plates (Corning). Aggregates were maintained in differentiation media at 37° C. and 5% CO2 for 3-5 weeks and fed every two days until experimentation.
For chondrocyte cytokine induction assays, 24 hours prior to experimentation, dexamethasone containing media was removed, aggregates were rinsed with DPBS (Gibco) and dexamethasone-free differentiation media was added. For experimentation, aggregates were transferred to 24 well plates (24 aggregates per condition), spent media was removed and fresh warmed dexamethasone-free media containing samples was added. Aggregates were then incubated at 37° C. and 5% CO2 for two days.
Recombinant BbHtrA or BbHtrA^S226A was added to culture medium and incubated with chondrocyte aggregate cultures. BbHtrA and BbHtrA^S226A were purified using an E. coli system and was expected to contain endotoxin which would have a stimulatory effect on the chondrocytes. To control for endotoxin contamination (lipopolysaccharide, LPS), an endotoxin removal kit (Noragen) was used to remove the bulk of LPS from recombinant BbHtrAs. The relative toxicity of the amount remaining in the BbHtrA and BbHtrA^S226A samples was determined by a chromogenic Limulus Amoebocyte Lysate (LAL) method (Lonza, Walkersville, Md.). Prior to addition to aggregates, LPS (44 ng, 200 EU), BbHtrA^WT (20 μg, 27.9 EU LPS) and BbHtrA^S226A ([…], 1.99 EU LPS) were incubated in 1 mg/ml polymyxin B sulfate (Sigma) on ice for 30 min with occasional mixing. Warmed dexamethasone-free medium was then added to each test condition to a final volume of 1 ml. Control aggregates were maintained in untreated medium also containing polymyxin B sulfate. The final concentration for all test conditions was 60 μg/ml polymyxin B sulfate. […]

[2] = spent medium of chondrocyte aggregates after 48 hours, cytokine array, background subtracted

B1: BbHtrA^S226A (protein)
chain: MEKKFFSGFLLSFLALSIGFFIGMHYLASNRSNIVFAEEKDNTVRALQDSFREVSKKILPSSVEVHATGVIKQSFPIPFFFFDMPEFDSERKSNWAGSGVIIGRDSQKKSLFYVVTNSHVVDKATELEVVSYDKKKHKAKLIGKDEKKDIALISFESDDATIKVADLGDSDKLEIGDWVMAVGSPFQFSFTVTAGIVSGLQRSANPNLQSRNLFIQTDAAINRGNAGGPLVNIKGEVIGINAWIASNSGGNIGLGFAIPVNNIKSTVDFFLKGKKIESAWLGISFYPLKTRDSEVLKSLGVESNDVSAAIIASLYPGSPAVKSGLRAGDIIMKVNGVSMSVFQDVTSYISDFYAGEKVNVEILRGNVKKNIEIVLAVRPKDKELSSSKMLPGFVVYPLVEDIKAQLNLRNWIKGVVVDYIDKNLASNIKMKSGDVILSVNSKSVSNLREFYDALEVGKNTYKILRGNDSFKITF
modifications: Mutant Borrelia burdorferi HtrA S226A
For B1, the “Cleavage of recombinant human aggrecan (G1-IGD-G2 domains) within the IGD” value (Aggrecan) was “failed to generate these fragments”, the “Cytokines released by chondrocytes in response” value ([1]; additional experiments, FIG. 10: BbHtrA^WT, BbHtrA^S226A, LPS, medium alone) was “IL-8 and CXCL1” and the “GROα/CXCL1 pixel density, Mean” value [1, 2] was 0.647. For the same molecule, the “I-309/CCL1 pixel density, Mean” value [1, 2] was 0.163, the “IL-6 pixel density, Mean” value [1, 2] was 0.309 and the “IL-8 pixel density, Mean” value [1, 2] was 1.187. For the same molecule, the “MCP-1/CCL2 pixel density, Mean” value [1, 2] was 0.050, the “RANTES/CCL5 pixel density, Mean” value [1, 2] was 0.265 and the “sICAM-1/CD54 pixel density, Mean” value [1, 2] was 0.257.
